Test results published in publication PMC6254012, “AP2/ERF Family Transcription Factors ORA59 and RAP2.3 Interact in the Nucleus and Function Together in Ethylene Responses” (Frontiers in Plant Science, 2018).

Target: T1, His-tagged RAP2.3 (RAP2.3-His) (Arabidopsis thaliana, UniProt P42736 1-248)
T1 construct: RAP2.3 (related to AP2.3), Arabidopsis thaliana; not shown: His, C-terminal, kept
Assay: pull-down; GST or ORA59-GST (10 μg) on glutathione sepharose 4B beads, RAP2.3-His (10 μg) added for 2 h at 4°C; 25 mM Tris-HCl pH 8.0, 100 mM NaCl, 1% Triton X-100, 1 mM DTT; immunoblot with anti-GST and anti-His
Details: both partners purified

T1 sequence (P42736 whole entry): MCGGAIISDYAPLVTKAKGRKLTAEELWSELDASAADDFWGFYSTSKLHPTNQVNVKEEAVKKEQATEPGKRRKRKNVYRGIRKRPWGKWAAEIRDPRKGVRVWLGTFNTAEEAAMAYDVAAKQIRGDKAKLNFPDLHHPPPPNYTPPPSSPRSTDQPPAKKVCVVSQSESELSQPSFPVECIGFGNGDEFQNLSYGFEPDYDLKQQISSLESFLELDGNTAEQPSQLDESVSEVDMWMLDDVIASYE

B1: C-terminal GST-tagged ORA59 (ORA59-GST) (natural protein)
chain: not shown
notes: ORA59 (octadecanoid-responsive arabidopsis 59), Arabidopsis thaliana; not shown: GST, C-terminal, kept
B1: binds.
